Laboratory results as given in paper PMC3492541 (Nature structural & molecular biology, 2012).
Changes are numbered by the printed parent chain.

B1: GST 7D (GST tail phosphomimetic in both zone 1 and zone 2) (domain or fragment, human, UniProt O14777 1-80, looked up)
chain: MKRSDVSDGGAGRLDMQELRSQDVNKQGLYTPQTKEKPTFGKLDINKPTSERKVDLFGKRTDGHGSRNDQLGIFSSSEKI
B2: GST tail phosphomimetic in zone 2 (domain or fragment, human, UniProt O14777 1-80, looked up)
chain: B1 chain with D44S, D55S, D62S, D69S
B3: GST 4D (GST tail phosphomimetic in zone 1) (domain or fragment, human, UniProt O14777 1-80, looked up)
chain: B1 chain with D5S, D8S, D15S

These binders were tested against taxol-stabilized microtubules (UniProt Q6B856 1-439) (assay: co-sedimentation).

Compared with B1, B2 is lower in “reduction of microtubule binding relative to GST 1–80” value: 80% for the first, 20% for the second.

For B3, the “reduction of microtubule binding relative to GST 1–80” value was 60%.
